Laboratory results taken from US20250171562A1 (ALK ABELL, published 2025).

B1: CIgG4B3A1(RS) (Fc fusion)
chain 1: GPPCPPCPAPEFLGGPSVFLFPPKPKDTLMISRTPEVTCVVVDVSQEDPEVQFNWYVDGVEVHNAKTKPREEQFNSTYRVVSVLTVLHQDWLNGKEYKCKVSNKGLPSSIEKTISKAKGQPREPQVYTLPPCQEEMTKNQVSLWCLVKGFYPSDIAVEWESNGQPENNYKTTPPVLDSDGSFFLYSRLTVDKSRWQEGNVFSCSVMHEALHNHYTQKSLSLSLGKRSDVQLQESGGGLVQAGGSLRLSCAASGFIFRLAGMSWVRQAPGKGFEWVSGITMDGSTTNYADSVKGRFTISRDNSKNRLYLQMNSLKPEDTAVYYCARGAKGGYNDPRGQGTQVTVS
chain 2: GPPCPPCPAPEFLGGPSVFLFPPKPKDTLMISRTPEVTCVVVDVSQEDPEVQFNWYVDGVEVHNAKTKPREEQFNSTYRVVSVLTVLHQDWLNGKEYKCKVSNKGLPSSIEKTISKAKGQPREPQVCTLPPSQEEMTKNQVSLSCAVKGFYPSDIAVEWESNGQPENNYKTTPPVLDSDGSFFLVSRLTVDKSRWQEGNVFSCSVMHEALHNHYTQKSLSLSLGKRSEVQLLESGGGLVQPGGSLRLSCAASGFTFGNYDMAWVRQAPGKRPEWVSSIDTGGDITHYADSVKGRFTISRDNAKNTLYLQMNSLRPEDTAVYWCATDEEYALGPNEFDYYGQGTLVTVSS
B2: CIgG4B3A1(G4S)1 (Fc fusion)
chain 1: GPPCPPCPAPEFLGGPSVFLFPPKPKDTLMISRTPEVTCVVVDVSQEDPEVQFNWYVDGVEVHNAKTKPREEQFNSTYRVVSVLTVLHQDWLNGKEYKCKVSNKGLPSSIEKTISKAKGQPREPQVYTLPPCQEEMTKNQVSLWCLVKGFYPSDIAVEWESNGQPENNYKTTPPVLDSDGSFFLYSRLTVDKSRWQEGNVFSCSVMHEALHNHYTQKSLSLSLGKGGGGSDVQLQESGGGLVQAGGSLRLSCAASGFIFRLAGMSWVRQAPGKGFEWVSGITMDGSTTNYADSVKGRFTISRDNSKNRLYLQMNSLKPEDTAVYYCARGAKGGYNDPRGQGTQVTVS
chain 2: GPPCPPCPAPEFLGGPSVFLFPPKPKDTLMISRTPEVTCVVVDVSQEDPEVQFNWYVDGVEVHNAKTKPREEQFNSTYRVVSVLTVLHQDWLNGKEYKCKVSNKGLPSSIEKTISKAKGQPREPQVCTLPPSQEEMTKNQVSLSCAVKGFYPSDIAVEWESNGQPENNYKTTPPVLDSDGSFFLVSRLTVDKSRWQEGNVFSCSVMHEALHNHYTQKSLSLSLGKGGGGSEVQLLESGGGLVQPGGSLRLSCAASGFTFGNYDMAWVRQAPGKRPEWVSSIDTGGDITHYADSVKGRFTISRDNAKNTLYLQMNSLRPEDTAVYWCATDEEYALGPNEFDYYGQGTLVTVSS
notes: also called CIgG4B3A1(GS)1
B3: CIgG4B3A1(G4S)2 (Fc fusion)
chain 1: GPPCPPCPAPEFLGGPSVFLFPPKPKDTLMISRTPEVTCVVVDVSQEDPEVQFNWYVDGVEVHNAKTKPREEQFNSTYRVVSVLTVLHQDWLNGKEYKCKVSNKGLPSSIEKTISKAKGQPREPQVYTLPPCQEEMTKNQVSLWCLVKGFYPSDIAVEWESNGQPENNYKTTPPVLDSDGSFFLYSRLTVDKSRWQEGNVFSCSVMHEALHNHYTQKSLSLSLGKGGGGSGGGGSDVQLQESGGGLVQAGGSLRLSCAASGFIFRLAGMSWVRQAPGKGFEWVSGITMDGSTTNYADSVKGRFTISRDNSKNRLYLQMNSLKPEDTAVYYCARGAKGGYNDPRGQGTQVTVS
chain 2: GPPCPPCPAPEFLGGPSVFLFPPKPKDTLMISRTPEVTCVVVDVSQEDPEVQFNWYVDGVEVHNAKTKPREEQFNSTYRVVSVLTVLHQDWLNGKEYKCKVSNKGLPSSIEKTISKAKGQPREPQVCTLPPSQEEMTKNQVSLSCAVKGFYPSDIAVEWESNGQPENNYKTTPPVLDSDGSFFLVSRLTVDKSRWQEGNVFSCSVMHEALHNHYTQKSLSLSLGKGGGGSGGGGSEVQLLESGGGLVQPGGSLRLSCAASGFTFGNYDMAWVRQAPGKRPEWVSSIDTGGDITHYADSVKGRFTISRDNAKNTLYLQMNSLRPEDTAVYWCATDEEYALGPNEFDYYGQGTLVTVSS
notes: also called CIgG4B3A1(GS)2
B4: CIgG4B3A1(G4S)3 (Fc fusion)
chain 1: GPPCPPCPAPEFLGGPSVFLFPPKPKDTLMISRTPEVTCVVVDVSQEDPEVQFNWYVDGVEVHNAKTKPREEQFNSTYRVVSVLTVLHQDWLNGKEYKCKVSNKGLPSSIEKTISKAKGQPREPQVYTLPPCQEEMTKNQVSLWCLVKGFYPSDIAVEWESNGQPENNYKTTPPVLDSDGSFFLYSRLTVDKSRWQEGNVFSCSVMHEALHNHYTQKSLSLSLGKGGGGSGGGGSGGGGSDVQLQESGGGLVQAGGSLRLSCAASGFIFRLAGMSWVRQAPGKGFEWVSGITMDGSTTNYADSVKGRFTISRDNSKNRLYLQMNSLKPEDTAVYYCARGAKGGYNDPRGQGTQVTVS
chain 2: GPPCPPCPAPEFLGGPSVFLFPPKPKDTLMISRTPEVTCVVVDVSQEDPEVQFNWYVDGVEVHNAKTKPREEQFNSTYRVVSVLTVLHQDWLNGKEYKCKVSNKGLPSSIEKTISKAKGQPREPQVCTLPPSQEEMTKNQVSLSCAVKGFYPSDIAVEWESNGQPENNYKTTPPVLDSDGSFFLVSRLTVDKSRWQEGNVFSCSVMHEALHNHYTQKSLSLSLGKGGGGSGGGGSGGGGSEVQLLESGGGLVQPGGSLRLSCAASGFTFGNYDMAWVRQAPGKRPEWVSSIDTGGDITHYADSVKGRFTISRDNAKNTLYLQMNSLRPEDTAVYWCATDEEYALGPNEFDYYGQGTLVTVSS
notes: also called CIgG4B3A1(GS)3
B5: CIgG4D1A1(RS) (Fc fusion)
chain 1: GPPCPPCPAPEFLGGPSVFLFPPKPKDTLMISRTPEVTCVVVDVSQEDPEVQFNWYVDGVEVHNAKTKPREEQFNSTYRVVSVLTVLHQDWLNGKEYKCKVSNKGLPSSIEKTISKAKGQPREPQVYTLPPCQEEMTKNQVSLWCLVKGFYPSDIAVEWESNGQPENNYKTTPPVLDSDGSFFLYSRLTVDKSRWQEGNVFSCSVMHEALHNHYTQKSLSLSLGKRSDVQLQESGGGLVQAGGSLRLSCAASGLTFSRCDMGWFRQAPGKEREFVARISANGASTHYADFVKGRFTISRDNAKNTVYLQMNYLKPEDTAVYICAAARVPVTWQLYDYWGQGTQVTVS
chain 2: B1 chain 2
B6: CIgG4D1A1(G4S)1 (Fc fusion)
chain 1: GPPCPPCPAPEFLGGPSVFLFPPKPKDTLMISRTPEVTCVVVDVSQEDPEVQFNWYVDGVEVHNAKTKPREEQFNSTYRVVSVLTVLHQDWLNGKEYKCKVSNKGLPSSIEKTISKAKGQPREPQVYTLPPCQEEMTKNQVSLWCLVKGFYPSDIAVEWESNGQPENNYKTTPPVLDSDGSFFLYSRLTVDKSRWQEGNVFSCSVMHEALHNHYTQKSLSLSLGKGGGGSDVQLQESGGGLVQAGGSLRLSCAASGLTFSRCDMGWFRQAPGKEREFVARISANGASTHYADFVKGRFTISRDNAKNTVYLQMNYLKPEDTAVYICAAARVPVTWQLYDYWGQGTQVTVS
chain 2: B2 chain 2
B7: CIgG4D1A1(G4S)2 (Fc fusion)
chain 1: GPPCPPCPAPEFLGGPSVFLFPPKPKDTLMISRTPEVTCVVVDVSQEDPEVQFNWYVDGVEVHNAKTKPREEQFNSTYRVVSVLTVLHQDWLNGKEYKCKVSNKGLPSSIEKTISKAKGQPREPQVYTLPPCQEEMTKNQVSLWCLVKGFYPSDIAVEWESNGQPENNYKTTPPVLDSDGSFFLYSRLTVDKSRWQEGNVFSCSVMHEALHNHYTQKSLSLSLGKGGGGSGGGGSDVQLQESGGGLVQAGGSLRLSCAASGLTFSRCDMGWFRQAPGKEREFVARISANGASTHYADFVKGRFTISRDNAKNTVYLQMNYLKPEDTAVYICAAARVPVTWQLYDYWGQGTQVTVS
chain 2: B3 chain 2
B8: CIgG4D1A1(G4S)3 (Fc fusion)
chain 1: GPPCPPCPAPEFLGGPSVFLFPPKPKDTLMISRTPEVTCVVVDVSQEDPEVQFNWYVDGVEVHNAKTKPREEQFNSTYRVVSVLTVLHQDWLNGKEYKCKVSNKGLPSSIEKTISKAKGQPREPQVYTLPPCQEEMTKNQVSLWCLVKGFYPSDIAVEWESNGQPENNYKTTPPVLDSDGSFFLYSRLTVDKSRWQEGNVFSCSVMHEALHNHYTQKSLSLSLGKGGGGSGGGGSGGGGSDVQLQESGGGLVQAGGSLRLSCAASGLTFSRCDMGWFRQAPGKEREFVARISANGASTHYADFVKGRFTISRDNAKNTVYLQMNYLKPEDTAVYICAAARVPVTWQLYDYWGQGTQVTVS
chain 2: B4 chain 2

Target: T1, recombinant human IgE (human, UniProt P01854-1 1-428)
T1 construct: made in-house (ALK); preloaded on immobilised FcεRIα in the displacement ELISA
T1 sequence (P01854 other isoform, or with tags, fused parts or gaps): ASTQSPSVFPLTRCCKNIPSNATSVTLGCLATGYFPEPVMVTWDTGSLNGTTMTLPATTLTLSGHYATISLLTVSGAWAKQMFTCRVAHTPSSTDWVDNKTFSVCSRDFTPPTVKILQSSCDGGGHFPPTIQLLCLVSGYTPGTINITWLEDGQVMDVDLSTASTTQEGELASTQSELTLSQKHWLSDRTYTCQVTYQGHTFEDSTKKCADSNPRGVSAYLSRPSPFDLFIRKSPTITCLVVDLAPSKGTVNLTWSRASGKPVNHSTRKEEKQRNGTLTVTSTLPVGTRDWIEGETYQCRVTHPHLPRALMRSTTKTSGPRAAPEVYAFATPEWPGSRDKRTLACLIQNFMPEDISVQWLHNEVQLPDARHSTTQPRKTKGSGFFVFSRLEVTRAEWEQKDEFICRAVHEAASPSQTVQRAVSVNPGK
Experiment: IgE-FcεRIα displacement ELISA
Procedure, shortened: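 sdAbs at pM–μM were incubated 1 h on preformed complexes of 13 ng/ml recombinant human IgE with avi-tag-biotinylated human FcεRIα captured on streptavidin.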

Binder	Max effect [%]	EC50 [nM]
B1	0	
B2	45	
B3	85	32
B4	95	5.4
B5	30	
B6	90	52
B7	> 95	30
B8	> 95	14
